Laboratory results reported in the RNAGym collection of RNA variant scans (doi:10.7554/elife.80360).

B1: HDV Ribozyme (parent)
chain: GGCCGGCAUGGUCCCAGCCUCCUCGCUGGCGCCGGCUGGGCAACAUUCCGAGGGGACCGUCCCCUCGGUAAUGGCGAAUGGGACCCA

Variants of: B1
Assay: self-cleavage, relative activity (ratio to wild type); higher = more cleavage; co-transcriptional

Variant | self-cleavage
GGCCGGCAUGGUCCCAGCCUCCUCGCUGGCGCCGGCUGGGCGACACUCCGAGGGGACCGUCCCCUCGGUAAUGGCGAAUGGGACCCA [A42G U46C] | 0.369
GGCCGGCAUGGUCCCAGCCUCCUCGCUGGCGCCGGCUGGGCUACAUUGCGAGGGGACCGUCCCCUCGGUAAUGGCGAAUGGGACCCA [A42U C48G] | 0.646
GGCCGGCAUGGUCCCAGCCUCCUCGCUGGCGCCGGCUGGGCUACAUUCCGAGGGGGCCGUCCCCUCGGUAAUGGCGAAUGGGACCCA [A42U A56G] | 0.306
GGCCGGCAUGGUCCCAGCCUCCUCGCUGGCGCCGGCUGGGCGACAUUCCGAGGGGACCGUCCCCUCUGUAAUGGCGAAUGGGACCCA [A42G G67U] | 0.565
GGCCGGCAUGGUCCCAGCCUCCUCGCUGGCGCCGGCUGGGCGACAUUCCGAGGGGACCGUCCCCUCGGUAAUGGCAAAUGGGACCCA [A42G G76A] | 0.631
GGCCGGCAUGGUCCCAGCCUCCUCGCUGGCGCCGGCUGGGCUACUUUCCGAGGGGACCGUCCCCUCGGUAAUGGCGAAUGGGACCCA [A42U A45U] | 0.554
GGCCGGCAUGGUCCCAGCCUCCUCGCUGGCGCCGGCUGGGCUACAUUCCGAGGGGACCGUCCCCUCGGUAAUGGCGAAUGGGAGCCA [A42U C84G] | 0.198
GGCCGGCAUGGUCCCAGCCUCCUCGCUGGCGCCGGCUGGGCGACAUUCCGAGGGGACCGUCCCCCCGGUAAUGGCGAAUGGGACCCA [A42G U65C] | 0.643
GGCCGGCAUGGUCCCAGCCUCCUCGCUGGCGCCGGCUGGGCGACAUUCCGAGGGGACCGUCCCCUCGGUAAUCGCGAAUGGGACCCA [A42G G73C] | 0
GGCCGGCAUGGUCCCAGCCUCCUCGCUGGCGCCGGCUGGGCUACAUUCCGAGGGGACCGUCCCCUCGGUAAUGGAGAAUGGGACCCA [A42U C75A] | 0.0405
GGCCGGCAUGGUCCCAGCCUCCUCGCUGGCGCCGGCUGGGCUAGAUUCCGAGGGGACCGUCCCCUCGGUAAUGGCGAAUGGGACCCA [A42U C44G] | 0.464
GGCCGGCAUGGUCCCAGCCUCCUCGCUGGCGCCGGCUGGGCGACAUACCGAGGGGACCGUCCCCUCGGUAAUGGCGAAUGGGACCCA [A42G U47A] | 0.391
GGCCGGCAUGGUCCCAGCCUCCUCGCUGGCGCCGGCUGGGCGACAUUCCGAGGGGACCGUCCCCUCGCUAAUGGCGAAUGGGACCCA [A42G G68C] | 0.271
GGCCGGCAUGGUCCCAGCCUCCUCGCUGGCGCCGGCUGGGCGACAUUCCGAGAGGACCGUCCCCUCGGUAAUGGCGAAUGGGACCCA [A42G G53A] | 0.496
GGCCGGCAUGGUCCCAGCCUCCUCGCUGGCGCCGGCUGGGCGACAUUCCGAGUGGACCGUCCCCUCGGUAAUGGCGAAUGGGACCCA [A42G G53U] | 0.817
GGCCGGCAUGGUCCCAGCCUCCUCGCUGGCGCCGGCUGGGCGACAUUCCGAUGGGACCGUCCCCUCGGUAAUGGCGAAUGGGACCCA [A42G G52U] | 0.501

Variant | self-cleavage
GGCCGGCAUGGUCCCAGCCUCCUCGCUGGCGCCGGCUGGGCGACAUUCCGAGGGGACCGUCCCCUCGGGAAUGGCGAAUGGGACCCA [A42G U69G] | 0.554
GGCCGGCAUGGUCCCAGCCUCCUCGCUGGCGCCGGCUGGGCGACAUUCCGAGGGGACCGUCCCCUCGGAAAUGGCGAAUGGGACCCA [A42G U69A] | 0.554
GGCCGGCAUGGUCCCAGCCUCCUCGCUGGCGCCGGCUGGGCUACAUUCCGAGGGGACCGUCCCCUCGGUAAUGGCGGAUGGGACCCA [A42U A77G] | 0.464
GGCCGGCAUGGUCCCAGCCUCCUCGCUGGCGCCGGCUGGGCUACAUUCCGAGGGGACCGUCCCCUCGGUAAUGGCGUAUGGGACCCA [A42U A77U] | 0.0739
GGCCGGCAUGGUCCCAGCCUCCUCGCUGGCGCCGGCUGGGCGACAUUCCGAGGGGACCUUCCCCUCGGUAAUGGCGAAUGGGACCCA [A42G G59U] | 0.608
GGCCGGCAUGGUCCCAGCCUCCUCGCUGGCGCCGGCUGGGCUACAUUCCGAGGGGACCGUCCCUUCGGUAAUGGCGAAUGGGACCCA [A42U C64U] | 0.594
GGCCGGCAUGGUCCCAGCCUCCUCGCUGGCGCCGGCUGGGCGACAUUCCGAGGGGACCGUCCCCUCGGUAAUGGCGAAUUGGACCCA [A42G G80U] | 0.095
GGCCGGCAUGGUCCCAGCCUCCUCGCUGGCGCCGGCUGGGCGACAUUCCAAGGGGACCGUCCCCUCGGUAAUGGCGAAUGGGACCCA [A42G G50A] | 0.446
GGCCGGCAUGGUCCCAGCCUCCUCGCUGGCGCCGGCUGGGCUGCAUUCCGAGGGGACCGUCCCCUCGGUAAUGGCGAAUGGGACCCA [A42U A43G] | 0.201
GGCCGGCAUGGUCCCAGCCUCCUCGCUGGCGCCGGCUGGGCGACAUUCCGAGGGGACCGUCCCCUCGGUAAUGGCGAAUGUGACCCA [A42G G81U] | 0.0346
GGCCGGCAUGGUCCCAGCCUCCUCGCUGGCGCCGGCUGGGCGACAUUCCGAGGGGACCGUCCCCUCGGUAAUGGCGAACGGGACCCA [A42G U79C] | 0.0386
GGCCGGCAUGGUCCCAGCCUCCUCGCUGGCGCCGGCUGGGCGACAUUCCGAGGGGACCGUCCCCUCGGUAAUGGCGAAGGGGACCCA [A42G U79G] | 0.359
GGCCGGCAUGGUCCCAGCCUCCUCGCUGGCGCCGGCUGGGCUACAUUCUGAGGGGACCGUCCCCUCGGUAAUGGCGAAUGGGACCCA [A42U C49U] | 0.502
GGCCGGCAUGGUCCCAGCCUCCUCGCUGGCGCCGGCUGGGCUACAUUCCGAGGGGACCGUCCCCUCGGUAAUGGCGAAUGGGACCCG [A42U A87G] | 0.389
GGCCGGCAUGGUCCCAGCCUCCUCGCUGGCGCCGGCUGGGCGACAUUCCGAGGGCACCGUCCCCUCGGUAAUGGCGAAUGGGACCCA [A42G G55C] | 0.675
GGCCGGCAUGGUCCCAGCCUCCUCGCUGGCGCCGGCUGGGCGACAUUCCGAGGGAACCGUCCCCUCGGUAAUGGCGAAUGGGACCCA [A42G G55A] | 0.485
